Measurements reported in patent US20070105155A1 (Janssen / Centocor, published 2007).

Tests used:
GST = target: T1, GST (UniProt P08515 1-218 = GST); assay: GST pull-down control (GST alone on beads), autoradiography, FIG. 2C
T1 construct: Negative control bait; also called glutathione S-transferase control
Description: Agarose-GSH beads (50% (vol./vol.)) bound with about 1 μg of GST or GST-CaM were incubated with 10 μl of ³⁵S-labelled TRPM8 fragment for 30 min at room temperature in a final volume of 200 μl of binding buffer. At the end of the incubation, the beads were washed three times with 1.0 ml of binding buffer and resuspended in 20 μl of 2× laemmli's sample loading buffer. Protein(s) bound to the beads, including the GST-CaM fusion protein, and possibly the ³⁵S-labelled TRPM8 fragment that interact with the GST-CaM fusion protein, were separated by SDS/PAGE followed by autoradiography.

GST-CaM fusion protein = GST-CaM fusion protein (Homo sapiens (Human), UniProt P0DP23 2-149); assay: GST pull-down on agarose-GSH beads, 35S-labelled fragment, SDS/PAGE and autoradiography

T1 sequence (P08515 whole entry): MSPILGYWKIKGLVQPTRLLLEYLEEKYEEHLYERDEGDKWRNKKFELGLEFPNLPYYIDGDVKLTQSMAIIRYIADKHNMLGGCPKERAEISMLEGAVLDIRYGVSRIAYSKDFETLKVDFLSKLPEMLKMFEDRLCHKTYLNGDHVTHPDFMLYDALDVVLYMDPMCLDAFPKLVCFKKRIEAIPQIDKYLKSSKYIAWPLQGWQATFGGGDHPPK

Binder | binding result (GST) | binding result (GST-CaM fusion protein)
TRPM8-9 fragment (rat TRPM8 A172-S352) (other, 35S-methionine labelled, In vitro translated from pAGA3; The forward primer carries an NcoI site (start ATG before A172); also called TRPM8-9/pAGA3; rTRPM8-9) AQSKGAWILTGGTHYGLMKYIGEVVRDNTISRNSEENIVAIGIAAWGMVSNRDTLIRNCDDEGHFSAQYIMDDFMRDPLYILDNNHTHLLLVDNGCHGHPTVEAKLRNQLEKYISERTSQDSNYGGKIPIVCFAQGGGRETLKAINTSVKSKIPCVVVEGSGQIADVIASLVEVEDVLTSS | no binding | no binding
TRPM8-7 fragment (rat TRPM8 V145-S352) (other, 35S-methionine labelled, In vitro translated from pAGA3; The forward primer carries an NcoI site (start ATG before V145); also called TRPM8-7/pAGA3; rTRPM8-7) VISVTGGAKNFALKPRMRKIFSRLIYIAQSKGAWILTGGTHYGLMKYIGEVVRDNTISRNSEENIVAIGIAAWGMVSNRDTLIRNCDDEGHFSAQYIMDDFMRDPLYILDNNHTHLLLVDNGCHGHPTVEAKLRNQLEKYISERTSQDSNYGGKIPIVCFAQGGGRETLKAINTSVKSKIPCVVVEGSGQIADVIASLVEVEDVLTSS | no binding | –

Second part, the binder after the results:

binding result (GST) | binding result (GST-CaM fusion protein) | Binder
no binding | no binding | TRPM8-10 fragment (rat TRPM8 D198-S352) (other, 35S-methionine labelled, In vitro translated from pAGA3; The forward primer carries an NcoI site (start ATG before D198); also called TRPM8-10/pAGA3; rTRPM8-10) DNTISRNSEENIVAIGIAAWGMVSNRDTLIRNCDDEGHFSAQYIMDDFMRDPLYILDNNHTHLLLVDNGCHGHPTVEAKLRNQLEKYISERTSQDSNYGGKIPIVCFAQGGGRETLKAINTSVKSKIPCVVVEGSGQIADVIASLVEVEDVLTSS
– | no binding | TRPM8-2 fragment (rat TRPM8 M353-T690) (other, 35S-methionine labelled, In vitro translated from pAGA3; also called TRPM8-2/pAGA3; rTRPM8-2) MVKEKLVRFLPRTVSRLPEEEIESWIKWLKEILESPHLLTVIKMEEAGDEVVSSAISYALYKAFSTNEQDKDNWNGQLKLLLEWNQLDLASDEIFTNDRRWESADLQEVMFTALIKDRPKFVRLFLENGLNLQKFLTNEVLTELFSTHFSTLVYRNLQIAKNSYNDALLTFVWKLVANFRRSFWKEDRSSREDLDVELHDASLTTRHPLQALFIWAILQNKKELSKVIWEQTKGCTLAALGASKLLKTLAKVKNDINAAGESEELANEYETRAVELFTECYSSDEDLAEQLLVYSCEAWGGSNCLELAVEATDQHFIAQPGVQNFLSKQWYGEISRDT
no binding | no binding | TRPM8-8 fragment (rat TRPM8 M219-S352) (other, 35S-methionine labelled, In vitro translated from pAGA3; also called TRPM8-8/pAGA3; rTRPM8-8) MVSNRDTLIRNCDDEGHFSAQYIMDDFMRDPLYILDNNHTHLLLVDNGCHGHPTVEAKLRNQLEKYISERTSQDSNYGGKIPIVCFAQGGGRETLKAINTSVKSKIPCVVVEGSGQIADVIASLVEVEDVLTSS
